In paper PMC4840364 (Scientific Reports, 2016):
Numbering of substitutions follows the chain as printed. Blank lines part the entries; values can stand above or below the binder they belong to.

Molecular target: T1, glycoprotein Ibα (GPIbα) on human platelets (Homo sapiens, UniProt P07359)
T1 construct: human platelet glycoprotein Ibα, endogenous on platelets; On platelets GPIbα stands in the GPIb-IX complex with GPIbβ and GPIX; also called full length GPIbα expressed on the cell surface; source: endogenous, on human platelets
Experiment: flow cytometry on cells; human platelets (1.5 x 10^6 cells/well) incubated with Fab fragments at room temperature for 20 min, FITC-conjugated goat anti-mouse IgG, MFI of 10,000 cells
Details: one partner purified

- binding result: binds
B1: wild-type 5G6 Fab fragment (recombinant) (Fab, V domains shown)
VH: QVTLKESGPGILQPSQTLSLTCSFSGFSLSTSNMGVVWIRQPSGKGLEWLLHILWNDGKFYNPALKSRLTISKDTYNNQVFLKIANVDTADTATYYCARLFTTTTSGYFDVWGAGTTVTVSS
VL: DIQMTQSPASLSASVGETVTITCRASGNIYNYLAWYQQKQGKSPQLLVYNAKTLADGVPSRFSGSGSGTQYSLKINSLQPEDFGSYFCQHFWDTPWTFGGGTKLEIK
notes: heavy chain of 5G6 Fab, as the heavy chain of m1; light chain of 5G6 Fab, as the light chain of m1; cDNA of both chains cloned from 5G6 hybridoma mRNA into pcDNA3.1 with a C-terminal 6xHis tag; also called 5G6-WT; source: CHO cells, transiently cotransfected, purified from medium (Ni-NTA, Superdex 200)

- binding result: no binding
B2: mutant 5G6 Fab 5G6-M2 (Fab, V domains shown)
VH: B1 VH with T102A, T103A, T104A, T105A
VL: B1 VL with D93A
notes: as the heavy chain of m2 with Thr102-105 of CDRH3 replaced with Ala; as the light chain of m2 with Asp93 of CDRL3 replaced with Ala; five point mutations in the interface
